Results published in patent publication US20090246175A1.

How the values were obtained:
[1] = molecular target: C3 convertases (C4b2a and C3bBb); assay: cell-based or functional assay
[2] = molecular target: classical and lectin pathway C3 convertase C4b2a (human) (UniProt P0C0L4); assay: cell-based or functional assay
Sequence of UniProt P0C0L4 (P0C0L4 20-1744 limits assumed, chain 1 of 2): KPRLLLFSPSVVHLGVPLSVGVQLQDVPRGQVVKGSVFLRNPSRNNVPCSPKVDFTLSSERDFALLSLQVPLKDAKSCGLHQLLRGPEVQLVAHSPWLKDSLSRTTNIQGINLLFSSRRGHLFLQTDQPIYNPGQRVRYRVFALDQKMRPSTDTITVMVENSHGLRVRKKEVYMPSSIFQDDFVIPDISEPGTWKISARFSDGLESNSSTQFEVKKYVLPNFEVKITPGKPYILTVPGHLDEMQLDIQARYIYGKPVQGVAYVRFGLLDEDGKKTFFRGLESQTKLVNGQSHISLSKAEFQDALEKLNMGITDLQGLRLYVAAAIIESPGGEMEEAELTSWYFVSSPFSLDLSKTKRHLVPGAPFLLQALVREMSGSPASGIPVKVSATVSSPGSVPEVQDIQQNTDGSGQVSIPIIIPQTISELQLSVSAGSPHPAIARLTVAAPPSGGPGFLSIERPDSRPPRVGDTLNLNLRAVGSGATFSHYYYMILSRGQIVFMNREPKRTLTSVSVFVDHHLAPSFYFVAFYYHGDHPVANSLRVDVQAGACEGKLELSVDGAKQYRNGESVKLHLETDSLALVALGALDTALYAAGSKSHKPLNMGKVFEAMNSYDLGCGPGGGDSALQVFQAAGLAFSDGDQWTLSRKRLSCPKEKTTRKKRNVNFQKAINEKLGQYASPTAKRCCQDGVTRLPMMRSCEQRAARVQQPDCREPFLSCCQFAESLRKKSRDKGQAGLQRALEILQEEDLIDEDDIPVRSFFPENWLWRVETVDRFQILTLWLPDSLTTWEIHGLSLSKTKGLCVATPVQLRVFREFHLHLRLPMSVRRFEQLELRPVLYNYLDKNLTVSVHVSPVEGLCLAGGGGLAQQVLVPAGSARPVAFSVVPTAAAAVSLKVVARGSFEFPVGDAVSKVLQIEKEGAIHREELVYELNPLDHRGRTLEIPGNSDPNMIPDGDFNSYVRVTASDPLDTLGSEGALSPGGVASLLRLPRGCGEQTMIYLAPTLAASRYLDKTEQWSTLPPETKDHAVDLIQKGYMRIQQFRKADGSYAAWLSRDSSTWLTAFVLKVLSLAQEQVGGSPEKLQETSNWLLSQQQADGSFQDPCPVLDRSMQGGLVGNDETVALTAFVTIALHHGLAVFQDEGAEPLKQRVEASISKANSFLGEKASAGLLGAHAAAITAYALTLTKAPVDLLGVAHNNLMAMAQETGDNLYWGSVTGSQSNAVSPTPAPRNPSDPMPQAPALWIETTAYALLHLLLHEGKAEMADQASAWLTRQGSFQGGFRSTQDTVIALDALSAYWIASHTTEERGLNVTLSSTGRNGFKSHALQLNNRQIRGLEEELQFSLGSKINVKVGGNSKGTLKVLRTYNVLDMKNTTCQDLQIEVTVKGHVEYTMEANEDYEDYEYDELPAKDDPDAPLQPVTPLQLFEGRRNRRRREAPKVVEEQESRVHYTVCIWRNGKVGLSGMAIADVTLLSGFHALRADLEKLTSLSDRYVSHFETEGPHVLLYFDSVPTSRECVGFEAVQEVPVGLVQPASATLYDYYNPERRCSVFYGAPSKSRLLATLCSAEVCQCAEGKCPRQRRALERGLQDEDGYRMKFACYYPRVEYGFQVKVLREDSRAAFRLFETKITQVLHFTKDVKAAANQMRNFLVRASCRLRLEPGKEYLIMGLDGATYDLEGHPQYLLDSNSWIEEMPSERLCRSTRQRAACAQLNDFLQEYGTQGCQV
Sequence of UniProt P0C0L4 (P06681 244-752 limits assumed, chain 2 of 2, further chain): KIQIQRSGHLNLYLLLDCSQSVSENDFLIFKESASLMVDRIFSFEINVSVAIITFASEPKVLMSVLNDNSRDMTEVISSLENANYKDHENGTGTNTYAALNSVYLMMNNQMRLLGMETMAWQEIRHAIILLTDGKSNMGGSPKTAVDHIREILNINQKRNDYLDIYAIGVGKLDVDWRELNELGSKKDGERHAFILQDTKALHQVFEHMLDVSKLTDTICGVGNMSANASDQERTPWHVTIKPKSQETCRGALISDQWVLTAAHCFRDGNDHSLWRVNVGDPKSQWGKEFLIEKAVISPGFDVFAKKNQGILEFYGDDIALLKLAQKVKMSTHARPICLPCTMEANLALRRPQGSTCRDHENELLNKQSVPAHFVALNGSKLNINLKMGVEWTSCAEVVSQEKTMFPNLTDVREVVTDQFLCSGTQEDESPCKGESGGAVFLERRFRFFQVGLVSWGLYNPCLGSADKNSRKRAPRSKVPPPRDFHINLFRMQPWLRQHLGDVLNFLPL

Substance	IC50 of phagocytosis of S. aureus by human neutrophils in 10% human sera [1] [µg/mL]	C5b-9 and C3b deposition via the CP and LP (ELISA) (% inhibition at 10 µg/ml) [2]
recombinant SCIN-B (rSCIN-B)	0.8	–
recombinant SCIN-C (rSCIN-C)	0.12	–
recombinant Staphylococcal Complement Inhibitor (rSCIN)	0.3	50
